# This sample holds only a part of the variants without activity.
# B1: TPR 5TU (parent)
# chain: GGAUCUUCUCGAUCUAACAAAAAAGACAAAUCUGCCACAAAGCUUGAGAGCAUCUUCGGAUGCAGAGGCGGCAGCCUUCGGUGGCGCGAUAGCGCCAACGUUCUCAACUAUGACACGCAAAACGCGUGCUCCGUUGAAUGGAGUUUAUCAUG
# Variants of: B1
# Assay: polymerase ribozyme fitness, log enrichment relative to wild type (log ratio); higher = more active; in vitro selection for triplet polymerase activity
# In short: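 PCR was used to build mutant libraries for each subunit of a heterodimeric triplet polymerase ribozyme, which were then transcribed. A single in vitro selection round, in triplicate, used a frozen incubation at −7 °C and recovered extended constructs by gel excision, streptavidin beads and RT-PCR. Fitness is the logarithm of genotype enrichment relative to wild-type enrichment, averaged over replicates with inverse-variance weights. The logarithm is base 2, and after Illumina sequencing only genotypes with ≥10 input reads and ≥1 read per output were kept.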
row,Variant,polymerase ribozyme fitness (log ratio)
1,C79U C103G,≤ -4.2
2,C79A C103G,≤ -4.2
3,U82G A137C,-2.98
4,U82C G94A,-1.35
5,U82A C129A,-2.19
6,C76U C87U G140U U146C,-3.72
7,G81U,-0.702
8,G81A,-0.305
9,G81C,-0.471
10,G80C G86U,-3.37
11,G80U C103G G152A,≤ -4.2
12,U82G A89U A91U A98U G100C,≤ -4.2
13,U82G A121G,-0.49
14,C76U G81A C99U,-0.44
15,G81C G94U A98U U146G,-0.695
16,G81A G140C,-2.67
17,G80C G84C G133A G141C,≤ -4.2
18,G81A A97U,-0.297
19,G80C C85U A97C C99A G141U,-3.93
20,G81A C118A,-1.82
21,U82A G86A A98U U134A,-3.68
22,U82A U102G,-2.54
23,U82C C95U C131G A142C,≤ -4.2
24,G81A C95A,-0.0952

row,Variant,polymerase ribozyme fitness (log ratio)
1,G80A C93U,-1.6
2,C79A U101G,≤ -4.2
3,U78G C85U G126U,≤ -4.2
4,C76U C95A C96U U151G,≤ -4.2
5,U78C G92A,-3.78
6,U82A G126A,1.28
7,G81C G86A,-1.83
8,C79G G88U U134C A142U,≤ -4.2
9,C76U U82G C87U,0.25
10,G80C C95U C99A G133U,≤ -4.2
11,C79U C85U A115C,≤ -4.2
12,G81C C95A U134A U144C,-2.86
13,C79U C87U A113G,-4.11
14,U77G C103G,≤ -4.2
15,C79G A98G G100C G124A,-2.18
16,C79A G83U U134G,≤ -4.2
17,G80A C87U A89C C99A A120U,-2
18,G80C C87U,≤ -4.2
19,C79U A91U C125A,≤ -4.2
20,U78G A89U C93G A106G C118G U145C A150U U151G,≤ -4.2
21,C79U C85U,-1.94
22,G80A A150G,-1.8
23,U82A G92C,0.508
24,U82A G92U,-0.55

row,Variant,polymerase ribozyme fitness (log ratio)
1,G81A G94C A106C A113U C116A G133A,≤ -4.2
2,C79U G84A C108A C114A C118A U139G,≤ -4.2
3,U77C C87G A142G,≤ -4.2
4,G81A C87U G100C G133U G141U,≤ -4.2
5,G81C C93U U101G,0.439
6,G80C C95U C118G,≤ -4.2
7,U77A U90A G133U A142C,≤ -4.2
8,G81A C85U A91U G124C U134A,≤ -4.2
9,G81U G84A,-1.28
10,C79A G83A,-3.78
11,G81U G92U U148G G152A,-3.95
12,U82G C87U U146C,-0.959
13,C76U G84A C85A C129U U134C,≤ -4.2
14,C76U U135G,-2.79
15,C76U U135C,-2.53
16,U77G C93U G117C,≤ -4.2
17,U77A C85U A91G G133C A142G,≤ -4.2
18,C79G A98U C99U G133U,≤ -4.2
19,G81A C85A,0.102
20,C79G A91G A113U,≤ -4.2
21,G81U C85U A115C G136C,-3.36
22,G81C G84U G126C,-2.04
23,C79U A91C,-4.02
24,U78C C95U C108U C116U,≤ -4.2

row,Variant,polymerase ribozyme fitness (log ratio)
1,G80C C131G,-4.04
2,C76U G84A U101A,-0.872
3,U78C C85U C103A G141U G152U,≤ -4.2
4,C79U G88C C93A G136U G143C,≤ -4.2
5,G80A U146G U148C,-3.91
6,G81U G84U A119U G143A,-1.61
7,G80C C103G G124A A147G,≤ -4.2
8,U82A A120C U130C G143U,-2.44
9,G80A C85A A142C,-2.14
10,C79A A91G A110G,≤ -4.2
11,C79U G92U,-1.44
12,C76U C85U C99G,-1.05
13,C76U G81A,0.573
14,G81A C93U C95U,-1.11
15,U82G A98G G117A A122U,0.376
16,G81A G86A,-1.56
17,C76U G84A C118U U134A G140C U151A,≤ -4.2
18,C79G A122C G140A,≤ -4.2
19,G80U G81C G84U A89U A97U G100A G126U,≤ -4.2
20,G81C A89U C96G,-0.784
21,G80U G86U G94C C105A U134A,≤ -4.2
22,U77G C93U G100U,≤ -4.2
23,U77C,-2.04
24,U77A,≤ -4.2

row,Variant,polymerase ribozyme fitness (log ratio)
1,G81C G126C U145C,0.873
2,C79U G140C,-4.1
3,C79G U101G U109G U135C U148A,≤ -4.2
4,U82C G88C C105U G141A C149U,≤ -4.2
5,U77G A89U C95A C114U C125G,≤ -4.2
6,U77C G84U A106C,≤ -4.2
7,G81C C85U,0.0549
8,U82A A107U,-2.79
9,U82A A106G C123G U148G,-4.03
10,U77G C99A G140A,≤ -4.2
11,G81C G141C,-0.0339
12,G81A C95A A98U,-0.289
13,C76U C95U,0.961
14,G80A G81C C95G U145G,-1.72
15,U78G G94U,-3.47
16,U78G U127C,≤ -4.2
17,C76U G117A,0.649
18,U78C U146C,0.315
19,U82C C114U,-1.99
20,G81U C95U,-1.63
21,C79U A150C,≤ -4.2
22,G80U C85A,-2.27
23,U77G A107U U144C U145C,≤ -4.2
24,C79A G80A G81A G88U,≤ -4.2

row,Variant,polymerase ribozyme fitness (log ratio)
1,U82A G124A,0.114
2,C76U G143A,-1.28
3,C76U U82C A89G,-1.3
4,G81A A91G C99G A120C,-4
5,U82A A89G C96G G128U,-4.05
6,U82C U135C U146C,-2.14
7,U82A C125A,-0.504
8,U82A C125G,-0.33
9,U78A C93G C108U,≤ -4.2
10,G81C C85U A107C G126A,-4.16
11,U82G C85A C95U U146A A150U,-1.37
12,G80U A110G,-4.05
13,U78G C114U C125A C149U,≤ -4.2
14,U78A,-3.62
15,U78C,-0.318
16,U77G G86U C93G C96A C118G U145G,≤ -4.2
17,G81C A98U A107G,≤ -4.2
18,U77A C93A A113C,≤ -4.2
19,G81A A89U G112A G133U C149U,≤ -4.2
20,C76U G86U,-2.16
21,U77C C96A,-2.82
22,G81A A89C,-0.165
23,G81U C85A U139G,-0.703
24,U82G,0.17

row,Variant,polymerase ribozyme fitness (log ratio)
1,U82C,-0.0678
2,U82A,-0.0631
3,U78C G92C C105U A106G C114U U148G,≤ -4.2
4,G81A C131G G140C,-4
5,U78A A91U,≤ -4.2
6,G81A C105U,1.52
7,G81C G143C,-2.03
8,C79G C95U,-3.03
9,C76U G94A,1.11
10,G81A C96U C114G A115U,-3.6
11,G81A A89C A119U C132G U135C G143C U148A,≤ -4.2
12,U77A U78C G94U C95G C105U,≤ -4.2
13,U82C C95G,-2.63
14,G80A G128U,-3.18
15,C76U C96U A97G C99U C103G,≤ -4.2
16,U78G A89U A106G C118U,≤ -4.2
17,U82A C95A A97C C103U U134A,-3.46
18,C76U G84U A98U,-1.66
19,C79U A121U,-1.2
20,C79U U90A A106U,≤ -4.2
21,C76U G84A U104G U151C,≤ -4.2
22,G81A A115U A142U,-2.42
23,C79A U82A C96A A107U U139A,≤ -4.2
